Test results reported in article PMC10614612, “Identification of a carbonic anhydrase–Rubisco complex within the alpha-carboxysome” (Proceedings of the National Academy of Sciences of the …, 2023).

Target: T1, biotinylated Rubisco (H. neapolitanus CbbL8S8) (H. neapolitanus, UniProt O85040 1-473; P45686 1-110, biotin (sites and subunit not stated))
T1 construct: Rubisco large subunit CbbL, H. neapolitanus, alpha-carboxysomal Form IA; Rubisco small subunit CbbS, H. neapolitanus; Held on streptavidin sensors; how it was biotinylated is in the SI Appendix methods; source: E. coli, coexpressed with GroEL/ES, purified (Strep-tag purification), biotinylated; copies: 8 + 8
Test: BLI; biotinylated Rubisco immobilised on streptavidin biosensors; 62.5–2.0 nM CsoSCA-MBP as prey; 25 mM Tris pH 7.5, 125 mM NaCl, 0.01% Triton X100; 1:1 binding model; triplicate
Settings: both partners purified

B1: CsoSCA-MBP (enzyme, H. neapolitanus, UniProt O85042 1-514, looked up)
chain: MNTRNTRSKQRAPFGVSSSVKPRLDLIEQAPNPAYDRHPACITLPERTCRHPLTDLEANEQLGRCEDSVKNRFDRVIPFLQVVAGIPLGLDYVTRVQELAQSSLGHTLPEELLKDNWISGHNLKGIFGYATAKALTAATEQFSRKIMSEKDDSASAIGFFLDCGFHAVDISPCADGRLKGLLPYILRLPLTAFTYRKAYAGSMFDIEDDLAQWEKNELRRYREGVPNTADQPTRYLKIAVYHFSTSDPTHSGCAAHGSNDRAALEAALTQLMKFREAVENAHCCGASIDILLIGVDTDTDAIRVHIPDSKGFLNPYRYVDNTVTYAQTLHLAPDEARVIIHEAILNANRSDGWAKGNGVASEGMRRFIGQLLINNLSQIDYVVNRHGGRYPPNDIGHAERYISVGDGFDEVQIRNLAYYAHLDTVEENAIDVDVGIKIFTKLNLSRGLPIPIAIHYRYDPNVPGSRERTVVKARRIYNAIKERFSSLDEQNLLQFRLSVQAQDIGSPIEEVASA
notes: CsoSCA, beta-carbonic anhydrase of the alpha-carboxysome, H. neapolitanus; also called CsoSCA-MBP-his; C-terminal MBP tagged CsoSCA; source: E. coli, purified (His-tag purification, size exclusion chromatography); not shown: MBP, C-terminal, kept
Q: With B1 as the binder, how does the Kd read?
A: The Kd was 1.2 ± 0.1 nM.
